Molecular target: Yeast Hsp90 wildtype construct without the coiled-coil motif and without cysteine mutation (yeast) (UniProt P02829)
Test: neutron spin echo spectroscopy; Hsp90 wildtype at 50 mg mL^-1 (614 µM) in D2O buffer with 150 mM KCl, 10 mM MgCl2, 295 K; effective diffusion compared with rigid-body models of dimer and hexamer

Q: “Yeast Hsp90 wildtype construct without the coiled-coil motif and without cysteine mutation, P02829 1-709 (natural protein; other documents disagree on this pair)” was tested. Which stoichiometry N did it give?
A: Its stoichiometry N is 6.

— publication PMC10754087
